Reference: paper PMC5453957, “Bartnicki Filip 1”

B1: reference aptamer (ssDNA)
DNA: CATGCTTCCCCAGGGAGATGACTGACTGACTGACTGACTGACTGACTGACTGACTGACTGGAGGAACATGCGTCGCAAAC
B2: 24-10 aptamer full length (ssDNA)
DNA: CATGCTTCCCCAGGGAGATGGACGGCACGTCTTTGTAATTGGTTCTGAGTTCCGTTGTGGGAGGAACATGCGTCGCAAAC

Assays:
R6-GST [1] = target: T1, R6-GST (synthetic construct, UniProt P08515 =RRRRRR+1-218, internal_change); assay: ITC; 25 C; n 2.61; Table 1 dG -35.8 kJ/mol would fit about 532 nM (R6/R8 possibly swapped); ITC: 50 mM phosphate pH 7.6, 207 mM NaCl, 25 C; pull-down: AS1 buffer (composition not given), 4 C, or ARGI buffer (50 mM Tris-HCl, 300 mM NaCl, 5 mM EDTA, 0.01% Tween 20, pH 7.5); settings: protein: recombinant; tags: N-terminal R6 (CPP tag under study); chain copies: 2; label: 5'-biotin (pull-down); four mfold structures predicted
Tat49-57-PCNA = Tat49-57-PCNA (human, UniProt P12004 =MRKKRRQRRRGGGGGGHPW+1-261, internal_change); assay: pull-down; AS1 buffer; ITC: 50 mM phosphate pH 7.6, 207 mM NaCl, 25 C; pull-down: AS1 buffer (composition not given), 4 C, or ARGI buffer (50 mM Tris-HCl, 300 mM NaCl, 5 mM EDTA, 0.01% Tween 20, pH 7.5); settings: protein: recombinant; tags: N-terminal Tat49-57; chain copies: 3; label: 5'-biotin (pull-down)
R6-PCNA = R6-PCNA (human, UniProt P12004 =RRRRRR+1-261, internal_change); assay: as above; settings: protein: recombinant; tags: N-terminal R6; chain copies: 3; label: 5'-biotin (pull-down)
R6-GST [2] = target: T1, R6-GST; assay: as above; settings: protein: recombinant; tags: N-terminal R6 (CPP tag under study); chain copies: 2; label: 5'-biotin (pull-down)

R6-PCNA, sequence (P12004 other isoform, or with tags, fused parts or gaps): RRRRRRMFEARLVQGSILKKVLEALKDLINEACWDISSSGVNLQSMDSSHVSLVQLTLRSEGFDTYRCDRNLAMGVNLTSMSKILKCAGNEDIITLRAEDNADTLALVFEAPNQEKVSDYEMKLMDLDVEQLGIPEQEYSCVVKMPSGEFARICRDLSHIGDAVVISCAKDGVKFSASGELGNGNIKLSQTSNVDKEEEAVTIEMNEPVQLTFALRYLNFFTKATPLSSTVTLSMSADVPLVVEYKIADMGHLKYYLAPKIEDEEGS
Tat49-57-PCNA, sequence (P12004 other isoform, or with tags, fused parts or gaps): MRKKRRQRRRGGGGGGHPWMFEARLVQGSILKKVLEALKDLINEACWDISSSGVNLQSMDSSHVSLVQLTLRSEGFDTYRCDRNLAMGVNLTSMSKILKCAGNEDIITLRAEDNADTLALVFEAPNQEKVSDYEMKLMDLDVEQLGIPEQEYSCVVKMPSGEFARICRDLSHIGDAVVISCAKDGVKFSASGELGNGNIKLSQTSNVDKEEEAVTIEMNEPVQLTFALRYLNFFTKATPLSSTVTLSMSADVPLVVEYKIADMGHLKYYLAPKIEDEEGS

Binder	Kd (R6-GST [1]) [nM]	binding result (Tat49-57-PCNA)	binding result (R6-PCNA)	binding result (R6-GST [2])
CTTTGTAATTGGTTCTGAGTTCCGTTGTGGGAGGAACATG (ssDNA) [AR aptamer (24-10 nt 31-70; 5'/-30 and 3'/-10)]	943 ± 37	–	–	–
B1	–	no binding	no binding	no binding
B2	–	binds	binds	binds
